Usually EC50 stands for the concentration needed to bring the measured effect to its halfway point. A lower EC50 goes with an effect from little substance.

In assay [1] the target is T1, HIR extracellular domain (ECD) (human, UniProt P06213 28-956, limits assumed).
T1 construct: extracellular domain; also called HIR ECD; IR ECD
Description: ELISA on plated HIR ECD; ED50 normalised with a MW of 375 kDa. In general terms: In an ELISA, binding on a coated surface is turned into a signal by an enzyme label.

The target of assay [2] is T1, HIR extracellular domain (ECD). Description: ELISA, HIR ECD plated on Nunc-Maxisorb wells, biotinylated goat anti-human IgG detection; ED50 by inspection.
The target is the same in assay [3]. The experiment in a line: ELISA on HIR ECD; ED50 normalised with a MW of 350 kDa.
The target is the same in assay [4]. Description: ELISA on lectin affinity purified HIR ECD; printed as ED50, non-linear regression.
For assay [5] the target is unchanged. The experiment in a line: ELISA on HIR ECD (FIG. 17); the same 166 ng/mL ED50 normalised with a MW of 375 kDa.
Assay [6] shares this target. Description: ELISA on HIR ECD; ED50 normalised with a MW of 150 kDa.
The target is the same in assay [7]. The experiment in a line: ELISA on plated HIR ECD; ED50 normalised with a MW of 150 kDa.

B1: HIRMAb-L-NAGLU fusion protein (23 amino acid L linker) (antibody, human IgG1, human IgG3, kappa)
heavy: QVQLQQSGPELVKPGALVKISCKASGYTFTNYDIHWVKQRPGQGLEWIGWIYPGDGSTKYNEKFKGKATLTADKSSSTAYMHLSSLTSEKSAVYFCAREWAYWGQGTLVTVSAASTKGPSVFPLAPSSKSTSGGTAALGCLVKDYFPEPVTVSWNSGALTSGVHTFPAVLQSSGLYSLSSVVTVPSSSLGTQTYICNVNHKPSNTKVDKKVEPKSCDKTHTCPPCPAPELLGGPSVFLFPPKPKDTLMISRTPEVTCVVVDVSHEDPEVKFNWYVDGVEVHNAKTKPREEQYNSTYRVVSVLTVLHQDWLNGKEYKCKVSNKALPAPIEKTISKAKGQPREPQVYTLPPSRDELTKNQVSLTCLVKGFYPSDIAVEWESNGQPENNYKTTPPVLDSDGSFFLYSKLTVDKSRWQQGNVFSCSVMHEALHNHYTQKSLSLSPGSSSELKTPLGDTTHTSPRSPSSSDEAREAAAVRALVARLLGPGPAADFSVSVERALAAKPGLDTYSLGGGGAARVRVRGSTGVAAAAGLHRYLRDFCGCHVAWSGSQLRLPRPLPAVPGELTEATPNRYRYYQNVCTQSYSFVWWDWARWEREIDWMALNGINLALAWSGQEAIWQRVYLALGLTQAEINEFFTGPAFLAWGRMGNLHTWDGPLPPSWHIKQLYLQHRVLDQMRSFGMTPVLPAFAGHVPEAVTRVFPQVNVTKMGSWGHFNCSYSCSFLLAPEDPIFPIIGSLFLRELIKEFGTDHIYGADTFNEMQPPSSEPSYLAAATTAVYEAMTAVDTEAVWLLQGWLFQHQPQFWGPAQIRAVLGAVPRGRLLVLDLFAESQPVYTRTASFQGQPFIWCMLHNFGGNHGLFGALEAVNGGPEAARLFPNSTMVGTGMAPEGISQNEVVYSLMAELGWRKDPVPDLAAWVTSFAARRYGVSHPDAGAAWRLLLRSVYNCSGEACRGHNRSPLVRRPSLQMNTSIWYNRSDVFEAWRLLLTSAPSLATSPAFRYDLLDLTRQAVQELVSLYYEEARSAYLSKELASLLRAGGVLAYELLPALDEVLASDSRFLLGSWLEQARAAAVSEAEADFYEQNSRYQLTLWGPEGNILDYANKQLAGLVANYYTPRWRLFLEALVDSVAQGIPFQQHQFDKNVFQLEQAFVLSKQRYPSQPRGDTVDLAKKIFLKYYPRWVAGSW
light: DIQMTQSPSSLSASLGERVSLTCRASQDIGGNLYWLQQGPDGTIKRLIYATSSLDSGVPKRFSGSRSGSDYSLTISSLESEDFVDYYCLQYSSSPWTFGGGTKLEIKRTVAAPSVFIFPPSDEQLKSGTASVVCLLNNFYPREAKVQWKVDNALQSGNSQESVTEQDSKDSTYSLSSTLTLSKADYEKHKVYACEVTHQGLSSPVTKSFNRGEC
notes: COS-derived (transient expression), purified on protein A. Hetero-tetramer; also called HIR Ab-L-NAGLU fusion protein; IgG-L-NAGLU
On to B1, for which the figures for the EC50 in assay [1] and in assay [2] were 0.93 nM and 0.35 µg/mL, respectively.

B2: HIRMAb-LL-NAGLU fusion protein (31 amino acid LL linker) (antibody, human IgG1, human IgG3, kappa)
heavy: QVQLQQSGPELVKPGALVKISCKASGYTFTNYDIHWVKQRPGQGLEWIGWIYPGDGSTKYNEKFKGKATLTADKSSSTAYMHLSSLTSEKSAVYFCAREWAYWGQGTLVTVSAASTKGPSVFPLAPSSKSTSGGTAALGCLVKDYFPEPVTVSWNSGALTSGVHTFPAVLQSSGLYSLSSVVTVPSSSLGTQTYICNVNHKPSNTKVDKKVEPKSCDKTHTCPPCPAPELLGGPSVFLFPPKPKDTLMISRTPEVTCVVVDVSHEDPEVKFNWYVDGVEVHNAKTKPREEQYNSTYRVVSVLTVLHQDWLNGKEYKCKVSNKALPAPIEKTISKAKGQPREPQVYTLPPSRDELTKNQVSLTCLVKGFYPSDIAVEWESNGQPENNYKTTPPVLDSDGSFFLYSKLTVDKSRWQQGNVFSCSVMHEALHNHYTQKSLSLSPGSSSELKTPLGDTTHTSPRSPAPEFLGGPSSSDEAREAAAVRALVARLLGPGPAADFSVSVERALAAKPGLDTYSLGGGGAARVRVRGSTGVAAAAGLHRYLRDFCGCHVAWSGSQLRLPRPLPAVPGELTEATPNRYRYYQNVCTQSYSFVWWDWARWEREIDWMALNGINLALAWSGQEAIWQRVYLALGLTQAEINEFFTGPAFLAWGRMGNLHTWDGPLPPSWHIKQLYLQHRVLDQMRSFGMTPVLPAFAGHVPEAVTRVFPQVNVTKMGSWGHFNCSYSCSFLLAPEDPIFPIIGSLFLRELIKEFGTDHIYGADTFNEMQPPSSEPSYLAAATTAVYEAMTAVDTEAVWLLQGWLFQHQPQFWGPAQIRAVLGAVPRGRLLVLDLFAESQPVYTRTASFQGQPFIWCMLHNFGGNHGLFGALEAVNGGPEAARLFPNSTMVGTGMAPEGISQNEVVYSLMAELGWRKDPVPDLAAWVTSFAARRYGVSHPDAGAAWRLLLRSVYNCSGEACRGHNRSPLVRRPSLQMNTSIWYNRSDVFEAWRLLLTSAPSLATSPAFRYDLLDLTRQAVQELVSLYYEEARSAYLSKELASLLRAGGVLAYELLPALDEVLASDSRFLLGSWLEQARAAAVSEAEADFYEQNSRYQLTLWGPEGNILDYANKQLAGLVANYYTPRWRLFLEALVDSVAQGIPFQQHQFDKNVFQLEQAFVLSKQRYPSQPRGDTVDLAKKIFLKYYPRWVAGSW
light: DIQMTQSPSSLSASLGERVSLTCRASQDIGGNLYWLQQGPDGTIKRLIYATSSLDSGVPKRFSGSRSGSDYSLTISSLESEDFVDYYCLQYSSSPWTFGGGTKLEIKRTVAAPSVFIFPPSDEQLKSGTASVVCLLNNFYPREAKVQWKVDNALQSGNSQESVTEQDSKDSTYSLSSTLTLSKADYEKHKVYACEVTHQGLSSPVTKSFNRGEC
notes: also called HIR Ab HC-LL-NAGLU; printed in places as HIRMAb-NAGLU or HIR Ab-NAGLU fusion protein
For the molecule B2, the 50% effective concentration (EC50) in assay [3] stood at 0.47 nM; in assay [4] it was 0.166 µg/mL; in assay [5], 0.44 nM.

B3: chimeric HIRMAb (chimeric monoclonal antibody against the human insulin receptor) (antibody, human IgG1, kappa)
heavy: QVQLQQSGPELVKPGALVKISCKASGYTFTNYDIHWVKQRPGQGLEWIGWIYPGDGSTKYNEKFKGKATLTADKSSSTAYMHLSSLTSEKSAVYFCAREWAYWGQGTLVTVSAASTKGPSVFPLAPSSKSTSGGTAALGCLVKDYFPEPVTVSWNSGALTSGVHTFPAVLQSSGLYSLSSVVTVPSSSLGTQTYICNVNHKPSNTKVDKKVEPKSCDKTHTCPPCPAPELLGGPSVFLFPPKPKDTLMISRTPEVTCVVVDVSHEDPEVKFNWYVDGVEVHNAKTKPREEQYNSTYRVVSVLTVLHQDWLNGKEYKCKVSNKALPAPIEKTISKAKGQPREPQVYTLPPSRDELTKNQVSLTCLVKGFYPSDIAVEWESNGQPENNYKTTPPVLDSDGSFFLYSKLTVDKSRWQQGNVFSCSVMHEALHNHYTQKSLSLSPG
light: DIQMTQSPSSLSASLGERVSLTCRASQDIGGNLYWLQQGPDGTIKRLIYATSSLDSGVPKRFSGSRSGSDYSLTISSLESEDFVDYYCLQYSSSPWTFGGGTKLEIKRTVAAPSVFIFPPSDEQLKSGTASVVCLLNNFYPREAKVQWKVDNALQSGNSQESVTEQDSKDSTYSLSSTLTLSKADYEKHKVYACEVTHQGLSSPVTKSFNRGEC
notes: also called HIR Ab; HIRMAb alone
Turning to B3, the concentration giving a half-maximal response (EC50) in assay [6] was 0.29 nM; in assay [7], 0.43 nM; in assay [4] it was 0.043 µg/mL; in assay [2], 0.065 µg/mL.

For the origin of these results see patent US20240409650A1 (ARMAGEN, published 2024).
